The values that follow come from US20060210473A1.

Assay [1] deals with human endoglin (human) (UniProt P17813). Put plainly: FACS on MDA-MB-231 and SKBR3 breast tumor lines; one grade for both antibodies; + is CFI 5-25.
The target is the same in assay [2]. Description: FACS on HUVEC, concentration giving half-maximal fluorescence.
Assay [3] has the same target. Description: FACS on HT-1080 and SAOS-2 sarcoma lines; one grade for both antibodies; + is CFI 5-25.
Assay [4] shares this target. Put plainly: cell-based or functional assay.
Assay [5] shares this target. Put plainly: FACS on ECV-304; one grade for both antibodies; ++ is CFI 25-50.
Assay [6] has the same target. Put plainly: indirect immunofluorescence, FACS on HUVEC, 10 µg/ml.
Assay [7] shares this target. Description: FACS on HUVEC; one grade for both antibodies; ++++ is CFI >100.
Assay [8] has the same target. Description: FACS competition on HUVEC; unlabelled TEC-4 against biotinylated TEC-11 (competitor), ratio TEC-11:TEC-4 1:100.
The target is the same in assay [9]. Put plainly: FACS on A375M and T8 melanoma lines; one grade for both antibodies; + is CFI 5-25.
Assay [10] shares this target. Description: FACS on U937; one grade for both antibodies; + is CFI 5-25.
The target is the same in assay [11]. Put plainly: FACS competition on HUVEC; unlabelled TEC-4 against biotinylated TEC-11 (competitor), ratio 1:1.
For assay [12] the target is unchanged. Description: FACS on L-endoglin fibroblast transfectant; one grade for both antibodies; +++ is CFI 50-100.
Assay [13] shares this target. Description: FACS competition on HUVEC; unlabelled TEC-11 against biotinylated TEC-4 (competitor), ratio 1:1.
The target is the same in assay [14]. Put plainly: FACS, 20 µg/ml TEC-11 on the sorted endoglin^hi fraction of postconfluent HUVEC; mean of 2 studies, SD 3.8. A general note: Flow cytometry measures light scatter and fluorescence of single cells or particles in a stream.
The target is the same in assay [15]. Put plainly: FACS, 20 µg/ml TEC-11 on the sorted endoglin^lo fraction of postconfluent HUVEC; mean of 2 studies, SD 2.4.

Take TEC-4 (antibody): the corrected fluorescence intensity (CFI) in assay [1] is 5 to 25 cfi; in [3], 5 to 25 cfi; in assay [5], 25 to 50 cfi; in assay [7], greater than 100 cfi; in assay [9], 5 to 25 cfi; in assay [10] it was 5 to 25 cfi. In assay [12], the corrected fluorescence intensity (CFI) was 50 to 100 cfi. In addition, the EC50 (in general, the concentration that produces a half-maximal response) in [2] was 4 µg/mL. In addition, the complement-mediated lysis of HUVEC (trypan blue) in assay [4] amounted to 48 % lysis. The substance also showed a specific mean fluorescence intensity (MFI) in assay [6] of 200 MFI. Moreover, the percent blocking in assay [8] was determined as 20%; in [11], 1%.

For the substance TEC-11 (antibody), the corrected fluorescence intensity (CFI) is 5 to 25 cfi in [1]; 5 to 25 cfi in assay [3]; 25 to 50 cfi in [5]; greater than 100 cfi in assay [7]; 5 to 25 cfi in assay [9]; 5 to 25 cfi in assay [10]. This substance had a corrected fluorescence intensity (CFI) in [12] of 50 to 100 cfi. The percent blocking in assay [13] was found to be 51%. Moreover, the EC50 in assay [2] is 0.4 µg/mL. For the same substance, the values for the MFI in assay [14] and in assay [15] were 270 MFI and 61.6 MFI, respectively. This substance yielded a complement fixation, relative to TEC-4 in assay [4] of 100 fold. Also, the complement-mediated lysis of HUVEC (trypan blue) in assay [4] came out at 50 % lysis. The substance further came in with a specific mean fluorescence intensity (MFI) in assay [6] of 200 MFI.
